# Target: Human CD137 ECD (human)
# Assay: SPR, vs parent H183/L072
# Chain of Human CD137 ECD (human) (chain, as listed by the source limits assumed): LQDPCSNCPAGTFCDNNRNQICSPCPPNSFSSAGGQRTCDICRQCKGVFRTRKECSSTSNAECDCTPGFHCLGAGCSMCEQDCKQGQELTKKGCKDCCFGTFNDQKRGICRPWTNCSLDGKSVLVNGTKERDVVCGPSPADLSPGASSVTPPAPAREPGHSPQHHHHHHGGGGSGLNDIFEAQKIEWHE
row,Binder,fold change of affinity
1,"dBBDu183H A100fK / dBBDu072L (antibody, name in Kabat numbering, V domains shown) VH: QVQLVESGGGLVQPGRSLRLSCAASGFTFSNAWMHWVRQAPGKGLEWVAQIKDKGNAYAAYYAPSVKGRFTISRDDSKNSIYLQMNSLKTEDTAVYYCHYVHYASASTVLPKFGVDAWGQGTTVTVSS VL: DIVMTQSPLSLPVTPGEPASISCQASQELVHMNRNTYLHWYQQKPGQAPRLLIYKVSNRFPGVPDRFSGSGSGTDFTLKISRVEAEDVGVYYCAQGTSVPFTFGQGTKLEIK",0 fold
2,"dBBDu183H F100gK / dBBDu072L (antibody, name in Kabat numbering, V domains shown) VH: QVQLVESGGGLVQPGRSLRLSCAASGFTFSNAWMHWVRQAPGKGLEWVAQIKDKGNAYAAYYAPSVKGRFTISRDDSKNSIYLQMNSLKTEDTAVYYCHYVHYASASTVLPAKGVDAWGQGTTVTVSS VL: DIVMTQSPLSLPVTPGEPASISCQASQELVHMNRNTYLHWYQQKPGQAPRLLIYKVSNRFPGVPDRFSGSGSGTDFTLKISRVEAEDVGVYYCAQGTSVPFTFGQGTKLEIK",0 fold
3,"dBBDu183H A102K / dBBDu072L (antibody, name in Kabat numbering, V domains shown) VH: QVQLVESGGGLVQPGRSLRLSCAASGFTFSNAWMHWVRQAPGKGLEWVAQIKDKGNAYAAYYAPSVKGRFTISRDDSKNSIYLQMNSLKTEDTAVYYCHYVHYASASTVLPAFGVDKWGQGTTVTVSS VL: DIVMTQSPLSLPVTPGEPASISCQASQELVHMNRNTYLHWYQQKPGQAPRLLIYKVSNRFPGVPDRFSGSGSGTDFTLKISRVEAEDVGVYYCAQGTSVPFTFGQGTKLEIK",0 fold
4,"dBBDu183H D101H / dBBDu072L (antibody, name in Kabat numbering, V domains shown) VH: QVQLVESGGGLVQPGRSLRLSCAASGFTFSNAWMHWVRQAPGKGLEWVAQIKDKGNAYAAYYAPSVKGRFTISRDDSKNSIYLQMNSLKTEDTAVYYCHYVHYASASTVLPAFGVHAWGQGTTVTVSS VL: DIVMTQSPLSLPVTPGEPASISCQASQELVHMNRNTYLHWYQQKPGQAPRLLIYKVSNRFPGVPDRFSGSGSGTDFTLKISRVEAEDVGVYYCAQGTSVPFTFGQGTKLEIK",0 fold
5,"dBBDu183H D101K / dBBDu072L (antibody, name in Kabat numbering, V domains shown) VH: QVQLVESGGGLVQPGRSLRLSCAASGFTFSNAWMHWVRQAPGKGLEWVAQIKDKGNAYAAYYAPSVKGRFTISRDDSKNSIYLQMNSLKTEDTAVYYCHYVHYASASTVLPAFGVKAWGQGTTVTVSS VL: DIVMTQSPLSLPVTPGEPASISCQASQELVHMNRNTYLHWYQQKPGQAPRLLIYKVSNRFPGVPDRFSGSGSGTDFTLKISRVEAEDVGVYYCAQGTSVPFTFGQGTKLEIK",0 fold
6,"dBBDu183H G100hK / dBBDu072L (antibody, name in Kabat numbering, V domains shown) VH: QVQLVESGGGLVQPGRSLRLSCAASGFTFSNAWMHWVRQAPGKGLEWVAQIKDKGNAYAAYYAPSVKGRFTISRDDSKNSIYLQMNSLKTEDTAVYYCHYVHYASASTVLPAFKVDAWGQGTTVTVSS VL: DIVMTQSPLSLPVTPGEPASISCQASQELVHMNRNTYLHWYQQKPGQAPRLLIYKVSNRFPGVPDRFSGSGSGTDFTLKISRVEAEDVGVYYCAQGTSVPFTFGQGTKLEIK",0 fold
7,"dBBDu183H H93K / dBBDu072L (antibody, name in Kabat numbering, V domains shown) VH: QVQLVESGGGLVQPGRSLRLSCAASGFTFSNAWMHWVRQAPGKGLEWVAQIKDKGNAYAAYYAPSVKGRFTISRDDSKNSIYLQMNSLKTEDTAVYYCKYVHYASASTVLPAFGVDAWGQGTTVTVSS VL: DIVMTQSPLSLPVTPGEPASISCQASQELVHMNRNTYLHWYQQKPGQAPRLLIYKVSNRFPGVPDRFSGSGSGTDFTLKISRVEAEDVGVYYCAQGTSVPFTFGQGTKLEIK",0 fold
8,"dBBDu183H A102H / dBBDu072L (antibody, name in Kabat numbering, V domains shown) VH: QVQLVESGGGLVQPGRSLRLSCAASGFTFSNAWMHWVRQAPGKGLEWVAQIKDKGNAYAAYYAPSVKGRFTISRDDSKNSIYLQMNSLKTEDTAVYYCHYVHYASASTVLPAFGVDHWGQGTTVTVSS VL: DIVMTQSPLSLPVTPGEPASISCQASQELVHMNRNTYLHWYQQKPGQAPRLLIYKVSNRFPGVPDRFSGSGSGTDFTLKISRVEAEDVGVYYCAQGTSVPFTFGQGTKLEIK",0 fold
9,"dBBDu183H G100hH / dBBDu072L (antibody, name in Kabat numbering, V domains shown) VH: QVQLVESGGGLVQPGRSLRLSCAASGFTFSNAWMHWVRQAPGKGLEWVAQIKDKGNAYAAYYAPSVKGRFTISRDDSKNSIYLQMNSLKTEDTAVYYCHYVHYASASTVLPAFHVDAWGQGTTVTVSS VL: DIVMTQSPLSLPVTPGEPASISCQASQELVHMNRNTYLHWYQQKPGQAPRLLIYKVSNRFPGVPDRFSGSGSGTDFTLKISRVEAEDVGVYYCAQGTSVPFTFGQGTKLEIK",0 fold
10,"dBBDu183H A98K / dBBDu072L (antibody, name in Kabat numbering, V domains shown) VH: QVQLVESGGGLVQPGRSLRLSCAASGFTFSNAWMHWVRQAPGKGLEWVAQIKDKGNAYAAYYAPSVKGRFTISRDDSKNSIYLQMNSLKTEDTAVYYCHYVHYKSASTVLPAFGVDAWGQGTTVTVSS VL: DIVMTQSPLSLPVTPGEPASISCQASQELVHMNRNTYLHWYQQKPGQAPRLLIYKVSNRFPGVPDRFSGSGSGTDFTLKISRVEAEDVGVYYCAQGTSVPFTFGQGTKLEIK",0 fold

# The next lines start with the values.
row,fold change of affinity,Binder
1,0 fold,"dBBDu183H L100dH / dBBDu072L (antibody, name in Kabat numbering, V domains shown) VH: QVQLVESGGGLVQPGRSLRLSCAASGFTFSNAWMHWVRQAPGKGLEWVAQIKDKGNAYAAYYAPSVKGRFTISRDDSKNSIYLQMNSLKTEDTAVYYCHYVHYASASTVHPAFGVDAWGQGTTVTVSS VL: DIVMTQSPLSLPVTPGEPASISCQASQELVHMNRNTYLHWYQQKPGQAPRLLIYKVSNRFPGVPDRFSGSGSGTDFTLKISRVEAEDVGVYYCAQGTSVPFTFGQGTKLEIK"
2,0 fold,"dBBDu183H Y94R / dBBDu072L (antibody, name in Kabat numbering, V domains shown) VH: QVQLVESGGGLVQPGRSLRLSCAASGFTFSNAWMHWVRQAPGKGLEWVAQIKDKGNAYAAYYAPSVKGRFTISRDDSKNSIYLQMNSLKTEDTAVYYCHRVHYASASTVLPAFGVDAWGQGTTVTVSS VL: DIVMTQSPLSLPVTPGEPASISCQASQELVHMNRNTYLHWYQQKPGQAPRLLIYKVSNRFPGVPDRFSGSGSGTDFTLKISRVEAEDVGVYYCAQGTSVPFTFGQGTKLEIK"
3,0 fold,"dBBDu183H V95K / dBBDu072L (antibody, name in Kabat numbering, V domains shown) VH: QVQLVESGGGLVQPGRSLRLSCAASGFTFSNAWMHWVRQAPGKGLEWVAQIKDKGNAYAAYYAPSVKGRFTISRDDSKNSIYLQMNSLKTEDTAVYYCHYKHYASASTVLPAFGVDAWGQGTTVTVSS VL: DIVMTQSPLSLPVTPGEPASISCQASQELVHMNRNTYLHWYQQKPGQAPRLLIYKVSNRFPGVPDRFSGSGSGTDFTLKISRVEAEDVGVYYCAQGTSVPFTFGQGTKLEIK"
4,0 fold,"dBBDu183H V100iH / dBBDu072L (antibody, name in Kabat numbering, V domains shown) VH: QVQLVESGGGLVQPGRSLRLSCAASGFTFSNAWMHWVRQAPGKGLEWVAQIKDKGNAYAAYYAPSVKGRFTISRDDSKNSIYLQMNSLKTEDTAVYYCHYVHYASASTVLPAFGHDAWGQGTTVTVSS VL: DIVMTQSPLSLPVTPGEPASISCQASQELVHMNRNTYLHWYQQKPGQAPRLLIYKVSNRFPGVPDRFSGSGSGTDFTLKISRVEAEDVGVYYCAQGTSVPFTFGQGTKLEIK"
5,0 fold,"dBBDu183H H93R / dBBDu072L (antibody, name in Kabat numbering, V domains shown) VH: QVQLVESGGGLVQPGRSLRLSCAASGFTFSNAWMHWVRQAPGKGLEWVAQIKDKGNAYAAYYAPSVKGRFTISRDDSKNSIYLQMNSLKTEDTAVYYCRYVHYASASTVLPAFGVDAWGQGTTVTVSS VL: DIVMTQSPLSLPVTPGEPASISCQASQELVHMNRNTYLHWYQQKPGQAPRLLIYKVSNRFPGVPDRFSGSGSGTDFTLKISRVEAEDVGVYYCAQGTSVPFTFGQGTKLEIK"
6,0 fold,"dBBDu183H S100aK / dBBDu072L (antibody, name in Kabat numbering, V domains shown) VH: QVQLVESGGGLVQPGRSLRLSCAASGFTFSNAWMHWVRQAPGKGLEWVAQIKDKGNAYAAYYAPSVKGRFTISRDDSKNSIYLQMNSLKTEDTAVYYCHYVHYASAKTVLPAFGVDAWGQGTTVTVSS VL: DIVMTQSPLSLPVTPGEPASISCQASQELVHMNRNTYLHWYQQKPGQAPRLLIYKVSNRFPGVPDRFSGSGSGTDFTLKISRVEAEDVGVYYCAQGTSVPFTFGQGTKLEIK"
7,0 fold,"dBBDu183H H96K / dBBDu072L (antibody, name in Kabat numbering, V domains shown) VH: QVQLVESGGGLVQPGRSLRLSCAASGFTFSNAWMHWVRQAPGKGLEWVAQIKDKGNAYAAYYAPSVKGRFTISRDDSKNSIYLQMNSLKTEDTAVYYCHYVKYASASTVLPAFGVDAWGQGTTVTVSS VL: DIVMTQSPLSLPVTPGEPASISCQASQELVHMNRNTYLHWYQQKPGQAPRLLIYKVSNRFPGVPDRFSGSGSGTDFTLKISRVEAEDVGVYYCAQGTSVPFTFGQGTKLEIK"
8,0 fold,"dBBDu183H Y94K / dBBDu072L (antibody, name in Kabat numbering, V domains shown) VH: QVQLVESGGGLVQPGRSLRLSCAASGFTFSNAWMHWVRQAPGKGLEWVAQIKDKGNAYAAYYAPSVKGRFTISRDDSKNSIYLQMNSLKTEDTAVYYCHKVHYASASTVLPAFGVDAWGQGTTVTVSS VL: DIVMTQSPLSLPVTPGEPASISCQASQELVHMNRNTYLHWYQQKPGQAPRLLIYKVSNRFPGVPDRFSGSGSGTDFTLKISRVEAEDVGVYYCAQGTSVPFTFGQGTKLEIK"
9,0 fold,"dBBDu183H Y97K / dBBDu072L (antibody, name in Kabat numbering, V domains shown) VH: QVQLVESGGGLVQPGRSLRLSCAASGFTFSNAWMHWVRQAPGKGLEWVAQIKDKGNAYAAYYAPSVKGRFTISRDDSKNSIYLQMNSLKTEDTAVYYCHYVHKASASTVLPAFGVDAWGQGTTVTVSS VL: DIVMTQSPLSLPVTPGEPASISCQASQELVHMNRNTYLHWYQQKPGQAPRLLIYKVSNRFPGVPDRFSGSGSGTDFTLKISRVEAEDVGVYYCAQGTSVPFTFGQGTKLEIK"
10,0 fold,"dBBDu183H V100iK / dBBDu072L (antibody, name in Kabat numbering, V domains shown) VH: QVQLVESGGGLVQPGRSLRLSCAASGFTFSNAWMHWVRQAPGKGLEWVAQIKDKGNAYAAYYAPSVKGRFTISRDDSKNSIYLQMNSLKTEDTAVYYCHYVHYASASTVLPAFGKDAWGQGTTVTVSS VL: DIVMTQSPLSLPVTPGEPASISCQASQELVHMNRNTYLHWYQQKPGQAPRLLIYKVSNRFPGVPDRFSGSGSGTDFTLKISRVEAEDVGVYYCAQGTSVPFTFGQGTKLEIK"
11,0 fold,"dBBDu183H T100bK / dBBDu072L (antibody, name in Kabat numbering, V domains shown) VH: QVQLVESGGGLVQPGRSLRLSCAASGFTFSNAWMHWVRQAPGKGLEWVAQIKDKGNAYAAYYAPSVKGRFTISRDDSKNSIYLQMNSLKTEDTAVYYCHYVHYASASKVLPAFGVDAWGQGTTVTVSS VL: DIVMTQSPLSLPVTPGEPASISCQASQELVHMNRNTYLHWYQQKPGQAPRLLIYKVSNRFPGVPDRFSGSGSGTDFTLKISRVEAEDVGVYYCAQGTSVPFTFGQGTKLEIK"

# — patent publication US20210388087A1
